The results in this text go back to patent US20200399389A1 (PHANES THERAPEUTICS, published 2020).

Sequences and labels used below:
B1: 60A9-H3L3 (antibody, V domains shown)
VH: EVQLVESGGGLVQPGQSLKLSCKASGYAFSSYWMNWVRQAPGKGLEWIGQIYPGDGDTYYNPSVKGRATLSADKSKNTAYLQLNNLRAEDTAVYYCAREAIYYGNYVFTYWGQGTLVTVSS
VL: DIQMTQSPSLLSASLGDRVTITCKSSQSLLNSSNQKNYLAWYQQKPGQSPKLLVYFASTRDSGVPDRFSGSGSGTDFTLTISSLEPEDFATYYCQQHYSTPLTFGGGTKLEIK
B2: 39G8-H1L3 (antibody, V domains shown)
VH: QVQLVQSGAEVKKPGASVKVSCKASGYTFTSYWMHWVRQAPGQGLEWIGEIDPSGGYTNYAQKFQGRSTLTVDKSISTAYMELSRLRSDDTAVYYCARNYYYGSSGTMDYWGQGTLVTVSS
VL: DIVMTQSPDSLAVSLGERATMSCKSSQSLLNSSNQKNYLAWYQQKPGQPPKLLVYFASTRESGVPDRFSGSGSGTDFTLTISSLQAEDVAVYFCQQHYSTPYTFGGGTKVEIK
B3: 39G8-H2L3 (antibody, V domains shown)
VH: QVQLVQSGAEVKKPGASVKVSCKASGYTFTSYWMHWVRQAPGQGLEWIGEIDPSGGYTNYAQKFQGRSTLTVDTSISTAYMELSRLRSDDTAVYYCARNYYYGSSGTMDYWGQGTLVTVSS
VL: DIVMTQSPDSLAVSLGERATMSCKSSQSLLNSSNQKNYLAWYQQKPGQPPKLLVYFASTRESGVPDRFSGSGSGTDFTLTISSLQAEDVAVYFCQQHYSTPYTFGGGTKVEIK
B4: 39G8-H3L3 (antibody, V domains shown)
VH: QVQLVQSGAEVKKPGASVKVSCKASGYTFTSYWMHWVRQAPGQGLEWIGEIDPSGGYTNYNQKFQGRSTLTVDKSISTAYMELSRLRSDDTAVYYCARNYYYGSSGTMDYWGQGTLVTVSS
VL: DIVMTQSPDSLAVSLGERATMSCKSSQSLLNSSNQKNYLAWYQQKPGQPPKLLVYFASTRESGVPDRFSGSGSGTDFTLTISSLQAEDVAVYFCQQHYSTPYTFGGGTKVEIK
B5: 60A9-H5L4 (antibody, V domains shown)
VH: EVQLVESGGGLVQPGQSLKLSCKASGYAFSSYWMNWVKQRPGKGLEWIGQIYPGDGDTYYSGKFKGRATLSADKSKNTAYLQLNNLRAEDTAVYYCAREAIYYGNYVFTYWGQGTLVTVSS
VL: DIVMTQSPSLLSASLGDRVTISCKSSQSLLNSSNQKNYLAWYQQKPGQSPKLLVYFASTRDSGVPDRFSGSGSGTDFTLTISSLEPEDFATYFCQQHYSTPLTFGAGTKLEIK

One assay addresses T1, HIS-tagged human CD73 (huCD73-HIS) (human, UniProt P21589 27-547).
T1 sequence: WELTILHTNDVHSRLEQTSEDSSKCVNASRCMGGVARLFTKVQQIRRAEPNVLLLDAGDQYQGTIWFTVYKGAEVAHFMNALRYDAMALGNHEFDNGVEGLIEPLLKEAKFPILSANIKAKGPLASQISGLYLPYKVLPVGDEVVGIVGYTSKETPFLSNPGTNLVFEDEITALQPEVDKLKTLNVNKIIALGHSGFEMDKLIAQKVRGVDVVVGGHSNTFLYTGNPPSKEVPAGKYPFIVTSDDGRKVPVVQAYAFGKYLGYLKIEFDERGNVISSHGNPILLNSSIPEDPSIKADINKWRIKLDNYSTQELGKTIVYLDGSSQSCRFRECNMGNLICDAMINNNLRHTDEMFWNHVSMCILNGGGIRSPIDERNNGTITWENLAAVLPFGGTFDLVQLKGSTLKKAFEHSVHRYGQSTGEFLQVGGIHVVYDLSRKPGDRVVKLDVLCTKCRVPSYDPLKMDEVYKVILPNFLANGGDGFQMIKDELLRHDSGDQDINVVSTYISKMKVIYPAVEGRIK
In words: cell-based or functional assay.
For B1, the “IC50 (nM), huCD73 enzymatic assay in solution” value is 2.09 nM.

The next assay has as its target T2, human CD73 expressed on the surface of cells (human, UniProt P21589 27-549).
T2 sequence: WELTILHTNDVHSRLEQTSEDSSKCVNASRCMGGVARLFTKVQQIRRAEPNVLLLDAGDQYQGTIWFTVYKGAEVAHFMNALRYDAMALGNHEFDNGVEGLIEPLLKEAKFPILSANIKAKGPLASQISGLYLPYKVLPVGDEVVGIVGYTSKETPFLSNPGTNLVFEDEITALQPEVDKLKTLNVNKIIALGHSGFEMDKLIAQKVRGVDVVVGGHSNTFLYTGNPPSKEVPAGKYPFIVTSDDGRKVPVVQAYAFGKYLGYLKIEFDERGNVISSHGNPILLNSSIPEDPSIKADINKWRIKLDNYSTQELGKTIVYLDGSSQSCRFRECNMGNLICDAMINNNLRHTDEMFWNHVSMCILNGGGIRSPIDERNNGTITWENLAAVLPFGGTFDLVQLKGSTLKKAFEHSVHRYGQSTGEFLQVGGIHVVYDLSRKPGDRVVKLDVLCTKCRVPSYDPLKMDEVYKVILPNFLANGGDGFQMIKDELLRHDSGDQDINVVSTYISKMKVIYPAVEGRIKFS
In words: cell-based or functional assay.
For B2, the “IC50 (nM), cell-based CD73 activity assay (A375 cells)” value (“IC50 (nM) … (A375 cells)” below) was 49.6 nM.

For B3, the “IC50 (nM) … (A375 cells)” value amounted to 66.3 nM.

As for B4, the “IC50 (nM) … (A375 cells)” value came to 56.1 nM.

For the molecule B1, the “IC50 (nM) … (A375 cells)” value was found to be 65.7 nM.

Consider B5, for which the “IC50 (nM) … (A375 cells)” value came out at 30.1 nM.
